Experimental data from US20100323904, “Transcription chip” (published 2010).

T1: Vitamin D receptor (VDR) (UniProt P11473 P11473:1-427)
T1 sequence: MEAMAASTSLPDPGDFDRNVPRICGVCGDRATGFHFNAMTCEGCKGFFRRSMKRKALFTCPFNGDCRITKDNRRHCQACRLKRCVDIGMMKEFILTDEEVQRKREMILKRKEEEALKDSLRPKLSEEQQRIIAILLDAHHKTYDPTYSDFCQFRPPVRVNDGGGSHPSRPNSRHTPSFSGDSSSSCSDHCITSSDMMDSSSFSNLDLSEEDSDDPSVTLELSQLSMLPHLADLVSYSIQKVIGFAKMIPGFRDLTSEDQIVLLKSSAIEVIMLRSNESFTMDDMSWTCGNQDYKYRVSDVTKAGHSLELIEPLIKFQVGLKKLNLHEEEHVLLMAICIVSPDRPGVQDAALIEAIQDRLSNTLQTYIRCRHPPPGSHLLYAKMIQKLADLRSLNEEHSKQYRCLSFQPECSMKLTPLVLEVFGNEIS

B1: VDRE (dsDNA)
DNA 1: GGGAGCTGAGTAAGGTCAAGGAGGTCAATGCATGCAGGTCAAGGAGGTCACATG
DNA 2: CATGTGACCTCCTTGACCTGCATGCATTGACCTCCTTGACCTTACTCAGCTCCC
modifications: 5'-NH2(CH2)12 on top strand, immobilized on chip
B2: TRE (dsDNA)
DNA 1: GGGAGCTGAGTAAGGTCATGACCTATGCATGCAGGTCATGACCTCATG
DNA 2: CATGAGGTCATGACCTGCATGCATAGGTCATGACCTTACTCAGCTCCC
modifications: 5'-NH2(CH2)12 on top strand, immobilized on chip
B3: CRE (dsDNA)
DNA 1: GGGAGCTGAGTATGACGTCAATGCATGCTGACGTCACATG
DNA 2: CATGTGACGTCAGCATGCATTGACGTCATACTCAGCTCCC
modifications: 5'-NH2(CH2)12 on top strand, immobilized on chip
B4: PRD II (two copies) (dsDNA)
DNA 1: GGGAGCTGAGTAGGGAAATTCCATGCATGCGGGAAATTCCCATG
DNA 2: CATGGGAATTTCCCGCATGCATGGAATTTCCCTACTCAGCTCCC
modifications: 5'-NH2(CH2)12 on top strand, immobilized on chip
B5: AP1 (dsDNA)
DNA 1: GGGAGCTGAGTATGACTCATATGCATGCTGACTCATCATG
DNA 2: CATGATGAGTCAGCATGCATATGAGTCATACTCAGCTCCC
modifications: 5'-NH2(CH2)12 on top strand, immobilized on chip
B6: RARE (dsDNA)
DNA 1: GGGAGCTGAGTAAGGTCACCAGGAGGTCAATGCATGCAGGTCACCAGGAGGTCACATG
DNA 2: CATGTGACCTCCTGGTGACCTGCATGCATTGACCTCCTGGTGACCTTACTCAGCTCCC
modifications: 5'-NH2(CH2)12 on top strand, immobilized on chip
B7: IgkB (two copies) (dsDNA)
DNA 1: GGGAGCTGAGTAGGGGATCCCATGCATGCGGGGATCCCCATG
DNA 2: CATGGGGATCCCCGCATGCATGGGATCCCCTACTCAGCTCCC
modifications: 5'-NH2(CH2)12 on top strand, immobilized on chip

Assays:
[1] = biological target: T2, NF-kB p50 (UniProt P19838 P19838:1-433); assay: array fluorescence immunoassay, 100 ng/mL; details: tags: Promega; chain copies: 2
Method: (§1) After washing twice with the washing buffer, NFκB diluted at 100 ng/mL with the binding buffer was added, and shaken at room temperature for one hour. After washing three times with the washing buffer, anti-NFκB antibody (RCK) diluted 100 times with antibody diluting buffer was added, and shaken at room temperature for one hour. After washing twice with the washing buffer, FITC-labeled anti-rabbit IgG antibody diluted 50 times with the antibody diluting buffer was added, and shaken at room temperature for one hour. After washing twice with the washing buffer, at a fluorescence wavelength of 535 nm based on Fluorescence of FITC excited with laser at a wavelength of 473 nm, fluorescent intensity was detected by CRBIO II microarray scanner.
The oligonucleotides comprising 9 element sequences, PRD II, AP1, p53, VDRE, RARE, CRE, TRE, GRE and ERE which were not labeled with FITC were similarly immobilized on the DLC chip. NFκB (100 ng/mL) was added to the DLC chip on which these 9 transcription factors had been arrayed, and detected by fluorescence immunoassay. As a result, the fluorescence was detected only from the oligonucleotide comprising PRD II which was the NFκB recognition sequence. […] Therefore, it is possible to construct the system in which multiple transcription factors are simultaneously detected in a sample in a small amount by combining antibodies which specifically recognize the transcription factors which is bound to the other element sequences.

[2] = biological target: T1, Vitamin D receptor (VDR); assay: 500 fmol/chip; captured VDR detected by on-chip trypsin digestion and MALDI-TOF MS
Method: Next, the on-chip digestion of 500 fmol/chip of vitamin D receptor was performed using trypsin (1 μg/mL) on the chip on which the element sequence VDRE which was the recognition sequence of the vitamin D receptor had been immobilized. Subsequently, the sample was added to the MALDI plate, and consequently, the same peptide map as that obtained by trypsin digestion of the sample in the solution was obtained as is the case with NFκB (FIGS. 16 and 17).

[3] = biological target: T2, NF-kB p50; assay: ELISA; on-chip ELISA; detected down to 1.0 ng/mL (DLC) and 0.33 ng/mL (GeneDia); 1% BSA, 10 mM HEPES pH 7.5, salmon sperm DNA, 2 mM DTT, room temperature; also fluorescence immunoassay on array; details: tags: Promega; chain copies: 2
Method: (§2) The plate was washed twice with the washing buffer, NFκB at various concentrations diluted with the binding buffer was added, and the plate was shaken at room temperature for one hour. The plate was washed three times with the washing buffer, anti-NFκB antibody diluted 2000 times with antibody diluting buffer was added, and the plate was shaken at room temperature for one hour. The plate was washed three times with the washing buffer, POD-labeled anti-rabbit IgG secondary antibody diluted 2000 times with the antibody diluting buffer was added, and the plate was shaken at room temperature for one hour. The plate was washed five times with the washing buffer, and subsequently absorbance at a wavelength of 450 nm based on the absorbance of TMBZ which was a color development substrate of POD was measured by a microplate reader.
(§3) In order to investigate an ELISA condition for NFκB, the double-stranded DNA comprising the element DNA sequence different in length and copy number were synthesized by the PCR method or a synthetic method, and analyzed. When PRD II-1 comprising one copy of the PRD II sequence was compared with PRD II-2, the immobilized PRD II-2 was more excellent in efficiency of trapping NFκB (FIG. 5). […]

[4] = biological target: T2, NF-kB p50; assay: array fluorescence immunoassay, 100 ng/mL; in ELISA about 30-50% background color before blocking optimisation; details: tags: Promega; chain copies: 2
Method: as §1
The oligonucleotides comprising 9 element sequences, PRD II, AP1, p53, VDRE, RARE, CRE, TRE, GRE and ERE which were not labeled with FITC were similarly immobilized on the DLC chip. NFκB (100 ng/mL) was added to the DLC chip on which these 9 transcription factors had been arrayed, and detected by fluorescence immunoassay. As a result, the fluorescence was detected only from the oligonucleotide comprising PRD II which was the NFκB recognition sequence. […]

[5] = biological target: T2, NF-kB p50; assay: ELISA; trapping equivalent to or more than PRD II-2; details: tags: Promega; chain copies: 2; label: 5'-FITC on bottom strand
Method: as §2, §3

T2 sequence (P19838 1-433, one chain of several): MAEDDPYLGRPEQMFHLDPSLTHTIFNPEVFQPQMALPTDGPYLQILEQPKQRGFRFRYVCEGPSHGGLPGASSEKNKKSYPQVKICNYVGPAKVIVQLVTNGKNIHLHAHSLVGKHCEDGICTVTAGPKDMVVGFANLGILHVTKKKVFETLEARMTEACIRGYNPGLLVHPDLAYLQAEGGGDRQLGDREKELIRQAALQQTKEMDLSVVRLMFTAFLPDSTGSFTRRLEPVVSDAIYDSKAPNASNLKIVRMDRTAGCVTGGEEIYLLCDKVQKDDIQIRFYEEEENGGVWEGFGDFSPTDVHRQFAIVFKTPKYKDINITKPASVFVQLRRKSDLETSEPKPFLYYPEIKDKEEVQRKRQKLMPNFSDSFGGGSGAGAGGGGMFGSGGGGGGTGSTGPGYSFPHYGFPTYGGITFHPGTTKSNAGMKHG

| Binder | binding result [1] | also measured |
| --- | --- | --- |
| B1 | no binding | binding result [2]: binds |
| B2 | no binding |  |
| B3 | no binding |  |
| B4 |  | binding result [3]: binds |
| B5 |  | binding result [4]: no binding |
| B6 | no binding |  |
| B7 |  | binding result [5]: binds |
